According to PMC3102065:
“And” between values parts separate entries of the source, which are not always exact repeats. Equal entries are not always repeated.

Target: HSP90N (human HSP90 isoform that lacks the N-terminal ATPase domain) (human) (UniProt P07900)
Test: AUC; sedimentation velocity of fractions from the S-300 column, 0.3 mg/ml in 100 mM Tris-HCl, 45,000 rpm, 20°C, c(s) distribution (SEDFIT)

## HSP90N (human HSP90 isoform that lacks the N-terminal ATPase domain) (from UniProt P07900-1 224-732) (natural protein)
  stoichiometry N: 2 and 4 and 6
